These results are taken from patent publication US20020058247A1.

This experiment deals with … (SEQ. ID. No. 74). The experiment can be described thus: competition EIA, 5 ug HBcAg peptide + 5 ug SEQ 74 peptide on coated HBcAg (competitor); OD of bound SEQ 74 peptide.
In the case of “HBcAg peptide … (residues 51-70, Sequence ID 100)”, the OD at 490 nm was 0.646 OD.

As to “HBcAg peptide … (residues 111-131 as printed, Sequence ID 106)”, the OD at 490 nm came out at 0.832 OD.

For “HBcAg peptide … (residues 121-140, Sequence ID 107)”, the OD at 490 nm was 0.701 OD.

Regarding “HBcAg peptide … (residues 141-160, Sequence ID 109)”, the OD at 490 nm turned out to be 0.811 OD.

As for “HBcAg peptide … (residues 151-170, Sequence ID 110)”, the OD at 490 nm was determined as 0.732 OD.

For “HBcAg peptide … (residues 161-183, Sequence ID 111)”, the OD at 490 nm came out at 0.678 OD.
